The results in this text go back to article PMC12700824 (2025).

The target in the assay is FAM118B24–334-F122R (human, UniProt Q9BPY3 24-334, F122R). Nature of the assay: ITC. In general terms: ITC needs no label: the signal is the heat of the interaction.

B1: FAM118B24–334-L32R (domain or fragment)
chain: PTKKPRKLRPSLKTKKPRELVLVIGTGISAAVAPQVPALKSWKGLIQALLDAAIDFDLLEDEESKKFQKCLHEDKNLVHVAHDLIQKLSPRTSNVRSTFFKDCLYEVFDDLESKMEDSGKQLLQSVLHLMENGALVLTTNFDNLLELYAADQGKQLESLDLTDEKKVLEWAQEKRKLSVLHIHGVYTNPSGIVLHPAGYQNVLRNTEVMREIQKLYENKSFLFLGCGWTVDDTTFQALFLEAVKHKSDLEHFMLVRRGDVDEFKKLRENMLDKGIKVISYGDDYADLPEYFKRLTCEISTRGTSAGMVREG
Molecule B1 had a Kd of 233 nM.

In general, Kd refers to the concentration at which binding is half-saturated. Low values mean higher affinity, high ones lower affinity.
